The values below come from the RNAGym collection of RNA variant scans (doi:10.1101/gr.219683.116).

To fix the notation:
B1: mRNA-splicing (parent)
chain: AGUUGCUGCUGGGAGCUCCAGCACAGUGAAAUGGACAGAAGGGCAGAGCAA

This series covers variants of B1. Briefly: exon inclusion enrichment index; higher = more inclusion; WT1 exon 5 minigene, HEK293.
As for AGUUCGCGCCGGGAGCUCCAGCACAGUUAAAUGGACAGAAGGGCAGAGCAA [G5C C6G U7C U10C G28U], the “exon inclusion enrichment index” value amounted to 1.05.
As to AGUUCACACAGCAAGCUCCAGCACAGUGAAAUGGACAGAAGGGCAGAGCAA [G5C C6A U7C G8A U10A G12C G13A], the “exon inclusion enrichment index” value was found to be 0.181.
The figure for AGUUGCUGCUGGGAGGCCCAGCACAGUGAAAUGGACAGAAGGGCAGAGCAA [C16G U17C] is 0.114; for AGUUGACGACGGGAGCUCCAGCACAGUGAAAUGGACAGAGAGGCAGAGCAA [C6A U7C C9A U10C A40G G41A] it is 1.83; for AGUUUCUUUUGGGAGCUCCAGCACUUUGAAAUGGACAGAAGGGCAGAGCAA [G5U G8U C9U A25U G26U] it is 0.0927.
To AGUUGCUGCUGGGAGCUCCAUUACAGUGAAAUGGACAGAAGGGCAGAGCAA [G21U C22U] belongs 0.89.
With AGUUCGCGCCGGGAGCUCCAGCACAGUGAAAUGGACAGAAGGGCAGUCCAA [G5C C6G U7C U10C A47U G48C], the “exon inclusion enrichment index” value is 2.42.
To AGUUCUUCUCGGGAGCUCCAGCACAGUGAAAUGGACAGUAGGGCAGAGCAA [G5C C6U G8C C9U U10C A39U] belongs 0.0783; to AGUUGCUGCUGGGAGCUCCAGCACGUUGAAAUGGACAGAAGGGCAGAGCAA [A25G G26U], 0.326; to AGUUCAGGCCGGGAGCUCCAGCACAGUGAAAUGGACAGAAGGGCAGAGCAA [G5C C6A U7G U10C], 0.429.
For the variant AGUUGAAGAAGGGAGCUCCAGCACAGUGAAAUGGACAGAAGGGCUCAGCAA [C6A U7A C9A U10A A45U G46C], the “exon inclusion enrichment index” value came to 0.614.
Regarding AAAUCUUCUCGGGAGCUCCAGCACAGUGAAAUGGACAGAAGGGCAGAGCAA [G2A U3A G5C C6U G8C C9U U10C], the “exon inclusion enrichment index” value is 1.94.
The figure for AGUUAUAUAUGGGAGCUCCAGCACAGUGAAAUGGACAGAAGGCAAGAGCAA [G5A C6U U7A G8U C9A G43C C44A] is 0.403; for AGUUGCUGGGGGGAGCUCCAGCACAGUGAAAUGGACAGAAGGGCAGAGCAA [C9G U10G] it is 0.0139.
To AGUUCGCGCCGGGAGCUCCAGCACAGUGAAAGAGACAGAAGGGCAGAGCAA [G5C C6G U7C U10C U32G G33A] belongs 1.79.
The figure for AGUUGACGAUGGGAGCUCCAGCACAGUGAAAUGGACAGAAGGGCAGAGCAA [C6A U7C C9A] is 1.99.
Regarding ACCUUCUUUUGGGAGCUCCAGCACAGUGAAAUGGACAGAAGGGCAGAGCAA [G2C U3C G5U G8U C9U], the “exon inclusion enrichment index” value was 0.29.
The figure for AGUUCUUCUCGGGAGCUCCAGCACAGUGAAAUGGACAGAGAGGCAGAGCAA [G5C C6U G8C C9U U10C A40G G41A] is 0.782.
Turning to AGUUACCACCAGGAGCUCCAGCACAGUGAAAUGGACAGAAGGGCAGAGCAA [G5A U7C G8A U10C G11A], the “exon inclusion enrichment index” value is 1.34.
In the case of AGUUACCACCGGGAGCUCCAGCACAGUGUUAUGGACAGAAGGGCAGAGCAA [G5A U7C G8A U10C A29U A30U], the “exon inclusion enrichment index” value amounted to 0.907.
For AGUUACCACCGGGAGCUCCAGCACAGUGUCAUGGACAGAAGGGCAGAGCAA [G5A U7C G8A U10C A29U A30C], the “exon inclusion enrichment index” value turned out to be 1.98.
On to AGUUCUUCUCUAGAGCUCCAGCACAGUGAAAUGGACAGAAGGGCAGAGCAA [G5C C6U G8C C9U U10C G11U G12A], for which the “exon inclusion enrichment index” value turned out to be 0.0218.
In the case of AGCUGAAGAAGGGAGCUCCAGCACAGUGAAAUGGACAGAAGGGCAGAGCAA [U3C C6A U7A C9A U10A], the “exon inclusion enrichment index” value amounted to 1.1.
To AGUUUCUUUUGGGAGCUCCAGCACAGUGAAAUGCUCAGAAGGGCAGAGCAA [G5U G8U C9U G34C A35U] belongs 0.00745; to AGUUGACGACGGGAGCUCCAGCACAGGAAAAUGGACAGAAGGGCAGAGCAA [C6A U7C C9A U10C U27G G28A], 3.19; to AGUUAUAUAUGGGAGCUCCAGCCUAGUGAAAUGGACAGAAGGGCAGAGCAA [G5A C6U U7A G8U C9A A23C C24U], 0.00662.
The figure for AGUUAGAGAAGGGAGCUCCAGCACAGUGAAAUGGACAGAAGGGCAGAGCAA [G5A C6G U7A C9A U10A] is 0.0116.
The figure for AGUUCACACAGGGAGCUCCAGCACAGUGAAAUGGACAUAAGGGCAGAGCAA [G5C C6A U7C G8A U10A G38U] is 0.0342; for AGUUCACACAGGGAGCACCAGCACAGUGAAAUGGACAGAAGGGCAGAGCAA [G5C C6A U7C G8A U10A U17A] it is 0.106; for AGUUGAAGAAGGUGGCUCCAGCACAGUGAAAUGGACAGAAGGGCAGAGCAA [C6A U7A C9A U10A G13U A14G] it is 0.553.
In the case of AGUUUCUUUUGGGAGCUCCAGCACAGUGAAAUGGACACCAGGGCAGAGCAA [G5U G8U C9U G38C A39C], the “exon inclusion enrichment index” value came out at 0.152.
The figure for AGUUAUAUAUGGGAGCUCCAGCACAGUGAAAUGGACAGAAGGGCUAAGCAA [G5A C6U U7A G8U C9A A45U G46A] is 0.0424.
In the case of AGUUAUCACAGGGAGCUCCAGCACAGUGAAAUGGACAGAAGGGCAGAGCAA [G5A C6U U7C G8A U10A], the “exon inclusion enrichment index” value is 0.0761.
The figure for AGUUGAAGAAGGGAGCUCCAGCACAGUGAAAUGGACAGCGGGGCAGAGCAA [C6A U7A C9A U10A A39C A40G] is 0.849; for AGUUGACGACGGGAGCUCCAGCACUAUGAAAUGGACAGAAGGGCAGAGCAA [C6A U7C C9A U10C A25U G26A] it is 3.54; for AGUUUCUUUUGGGAGCUCCAGCACAGUGAACUGGACAGAAGGGCAGAGCAA [G5U G8U C9U A31C] it is 0.202.
The figure for AGUUGAAGAAGGGAGCUCCAGCACAGUGAAAUGGACAGGCGGGCAGAGCAA [C6A U7A C9A U10A A39G A40C] is 1.22; for AGUUACCACCGGUUGCUCCAGCACAGUGAAAUGGACAGAAGGGCAGAGCAA [G5A U7C G8A U10C G13U A14U] it is 1.08; for AGUUAGGGAUGGGAGCUCCAGCACAGUGAAAUGUGCAGAAGGGCAGAGCAA [G5A C6G U7G C9A G34U A35G] it is 0.00131.
With AGUUGACGACGGGAGCUCCAGCACAGUGAAAUGGACGAAAGGGCAGAGCAA [C6A U7C C9A U10C A37G G38A], the “exon inclusion enrichment index” value was 3.
The figure for AGUUACCACCGGGAGCUCCAGCACAGUGAAAUGGACUAAAGGGCAGAGCAA [G5A U7C G8A U10C A37U G38A] is 0.876.
The figure for AGUUAGGGAUGGGAGCUCCAGCACAGUGAAACUGACAGAAGGGCAGAGCAA [G5A C6G U7G C9A U32C G33U] is 0.00177; for AGUUCACACAGGGACCUCCAGCACAGUGAAAUGGACAGAAGGGCAGAGCAA [G5C C6A U7C G8A U10A G15C] it is 0.0588.
Regarding AGUUCGCGCCGGGAGCUCCAGCACAGUGAAAUGGACAGAAGGAGAGAGCAA [G5C C6G U7C U10C G43A C44G], the “exon inclusion enrichment index” value is 4.94.
The figure for AGUUACCACCGGAUGCUCCAGCACAGUGAAAUGGACAGAAGGGCAGAGCAA [G5A U7C G8A U10C G13A A14U] is 2.87.
The figure for AGUUACUCCCGGGAGCUCCAGCACAGUGAAAUGGACAGAAGGGCAGAGCAA [G5A G8C U10C] is 1.52.
To AGUUACCACCGGGAGCUCCCCCACAGUGAAAUGGACAGAAGGGCAGAGCAA [G5A U7C G8A U10C A20C G21C] belongs 0.722.
Take AGUUCACACAGGGAGCUCCAGCACAACGAAAUGGACAGAAGGGCAGAGCAA [G5C C6A U7C G8A U10A G26A U27C]: the “exon inclusion enrichment index” value came to 0.555.
To AGUUGAAGAAGAUAGCUCCAGCACAGUGAAAUGGACAGAAGGGCAGAGCAA [C6A U7A C9A U10A G12A G13U] belongs 0.801.
The figure for AGUUGAAGAAGGGAGCUCCAGCACAGUGACUUGGACAGAAGGGCAGAGCAA [C6A U7A C9A U10A A30C A31U] is 0.986; for AGUUCGCGCCGGGAGCUCCAAGACAGUGAAAUGGACAGAAGGGCAGAGCAA [G5C C6G U7C U10C G21A C22G] it is 3.81.
